50 sequences from the supplement of paper PMC9112550, “Optimization of the antimicrobial peptide Bac7 by deep mutational scanning” (BMC Biology, 2022) can be followed below.

This data set deals with Escherichia coli TOP10. The data set is described as follows: shrunken log2 fold change of peptide-encoding DNA abundance (4.5 h post-induction vs induction); higher = less antimicrobial activity (less host growth inhibition). The conditions noted are these: time post-induction: 4.5 h; library: site-saturation at positions 5, 18, 19, 20.
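Note: peptides expressed intracellularly from a pBAD plasmid library in pooled LB shake-flask culture, induced with 0.3% L-arabinose, DNA abundance read by NGS, three biological replicates, DESeq2 with apeglm shrinkage.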

Regarding RRIRFRPPRLPRPRPRPLRCPRP, the “shrunken log2 fold change” value was found to be 0.0723. Turning to RRIRHRPPRLPRPRPRPNFQPRP, the “shrunken log2 fold change” value was -0.161. In the case of RRIRKRPPRLPRPRPRPDASPRP, the “shrunken log2 fold change” value turned out to be 0.187. With RRIRYRPPRLPRPRPRPTFWPRP, the “shrunken log2 fold change” value is 0.0421.

In the case of RRIRKRPPRLPRPRPRPMGHPRP, the “shrunken log2 fold change” value is 0.000751. RRIRVRPPRLPRPRPRPRHWPRP: the “shrunken log2 fold change” value came to 0.293. For the sequence RRIRDRPPRLPRPRPRPMDWPRP, the “shrunken log2 fold change” value is 0.0545.

As for RRIRVRPPRLPRPRPRPMHEPRP, the “shrunken log2 fold change” value was -0.044. Consider RRIRRRPPRLPRPRPRPYGAPRP, for which the “shrunken log2 fold change” value was -0.171. With RRIRRRPPRLPRPRPRPSAQPRP, the “shrunken log2 fold change” value was 0.234.

Take RRIRMRPPRLPRPRPRPHWNPRP: the “shrunken log2 fold change” value was -0.271. As for RRIRARPPRLPRPRPRPKYMPRP, the “shrunken log2 fold change” value is -0.477. For the sequence RRIRHRPPRLPRPRPRPFRTPRP, the “shrunken log2 fold change” value is -0.0018. As for RRIRKRPPRLPRPRPRPEFAPRP, the figure is 1.03. Consider RRIRVRPPRLPRPRPRPMHTPRP, for which the “shrunken log2 fold change” value stood at 0.0814. Consider RRIRCRPPRLPRPRPRPWSNPRP, for which the “shrunken log2 fold change” value was 0.00372.

For the sequence RRIRQRPPRLPRPRPRPHHIPRP, the “shrunken log2 fold change” value was -0.764. For the sequence RRIRLRPPRLPRPRPRPWYSPRP, the “shrunken log2 fold change” value was -0.103.

For RRIRNRPPRLPRPRPRPCDTPRP, the “shrunken log2 fold change” value is -0.0137. With RRIRSRPPRLPRPRPRPYYSPRP, the “shrunken log2 fold change” value is -0.318. For RRIRDRPPRLPRPRPRPRGIPRP, the “shrunken log2 fold change” value is -0.0372. Take RRIRHRPPRLPRPRPRPYHIPRP: the “shrunken log2 fold change” value was -0.045. As to RRIRYRPPRLPRPRPRPTFMPRP, the “shrunken log2 fold change” value is -0.0549. As for RRIRPRPPRLPRPRPRPMLHPRP, the figure is -0.0917. As for RRIRYRPPRLPRPRPRPVYEPRP, the figure is 2.81. For the sequence RRIRTRPPRLPRPRPRPIRPPRP, the “shrunken log2 fold change” value came out at 0.122. As for RRIRYRPPRLPRPRPRPDVAPRP, the figure is 0.105; as for RRIRMRPPRLPRPRPRPTNQPRP, 0.279; as for RRIRERPPRLPRPRPRPAPPPRP, 0.422. Turning to RRIRHRPPRLPRPRPRPYDKPRP, the “shrunken log2 fold change” value was -0.961. As for RRIRDRPPRLPRPRPRPIIQPRP, the “shrunken log2 fold change” value was -0.0678. Take RRIRIRPPRLPRPRPRPAKSPRP: the “shrunken log2 fold change” value was -0.0109. Consider RRIRYRPPRLPRPRPRPEGPPRP, for which the “shrunken log2 fold change” value was found to be 0.12. Turning to RRIRQRPPRLPRPRPRPSCVPRP, the “shrunken log2 fold change” value is -0.478. As for RRIRTRPPRLPRPRPRPPLTPRP, the figure is 0.13. On to RRIRYRPPRLPRPRPRPARLPRP, for which the “shrunken log2 fold change” value is -0.0429. As for RRIRARPPRLPRPRPRPVVSPRP, the “shrunken log2 fold change” value worked out at 0.188.

As for RRIRDRPPRLPRPRPRPYVNPRP, the “shrunken log2 fold change” value was -1.59. As for RRIRSRPPRLPRPRPRPYCSPRP, the figure is -0.094; as for RRIRSRPPRLPRPRPRPGPHPRP, -0.109. Regarding RRIRDRPPRLPRPRPRPDFAPRP, the “shrunken log2 fold change” value turned out to be 0.152. With RRIRVRPPRLPRPRPRPHDVPRP, the “shrunken log2 fold change” value is -0.116. Take RRIRQRPPRLPRPRPRPPAGPRP: the “shrunken log2 fold change” value amounted to 0.866. Regarding RRIRTRPPRLPRPRPRPDTEPRP, the “shrunken log2 fold change” value was -0.072.

For RRIRSRPPRLPRPRPRPLHCPRP, the “shrunken log2 fold change” value stood at 0.0547. As for RRIRYRPPRLPRPRPRPDLTPRP, the figure is -0.0272; as for RRIRRRPPRLPRPRPRPGEKPRP, 0.0687. As for RRIRLRPPRLPRPRPRPVYWPRP, the “shrunken log2 fold change” value was -0.14. As for RRIRPRPPRLPRPRPRPKNKPRP, the figure is -0.187; as for RRIRIRPPRLPRPRPRPHDDPRP, -0.177.
